Assay results: article doi:10.1101/2020.08.28.272104
pKd: −log10 of the molar value.

Molecular target: triple-helical collagen peptide Ac-(GPO)2-GPO-GPQ-GLA-GQR-GIV-GLO-GQR-GER-(GPO)3G-NH2
Experiment: ITC

pKd: 6.30 to 6.60 | stoichiometry N: 1
Substance: MMP-1(E200A), active-site mutant of matrix metalloproteinase 1 (enzyme)
